Assays:
Assay in all cases: cell-based or functional assay
[1] = biological target: HIV-1 strain TRJO4551.58 envelope (gp120) (HIV-1)
[2] = biological target: HIV-1 strain ZM214M.PL15 envelope (gp120) (HIV-1)
[3] = biological target: HIV-1 strain Q259.d2.17 envelope (gp120) (HIV-1)
[4] = biological target: HIV-1 Env of strain Du156.12 (HIV-1)
[5] = biological target: HIV-1 Env of strain WITO4160.33 (HIV-1)
[6] = biological target: HIV-1 strain PVO.4 envelope (gp120) (HIV-1)
[7] = biological target: HIV-1 Env of strain Ce1176_A3 (HIV-1)
[8] = biological target: HIV-1 Env of strain 6540.v4.cl (HIV-1)
[9] = biological target: HIV-1 Env of strain C2101.c01 (HIV-1)
[10] = biological target: HIV-1 strain 620345.c01 envelope (gp120) (HIV-1)
[11] = biological target: HIV-1 strain P1981_C5_3 envelope (gp120) (HIV-1)
[12] = biological target: HIV-1 Env of strain P0402_c2_11 (HIV-1)
[13] = biological target: HIV-1 strain Ce0682_E4 envelope (gp120) (HIV-1)
[14] = biological target: HIV-1 Env of strain T257-31 (HIV-1)
[15] = biological target: HIV-1 Env of strain Q259.d2.17 (HIV-1)
[16] = biological target: HIV-1 strain 0330.v4.c3 envelope (gp120) (HIV-1)
[17] = biological target: HIV-1 strain ZM53M.PB12 envelope (gp120) (HIV-1)
[18] = biological target: HIV-1 Env of strain SC422661.8 (HIV-1)
[19] = biological target: HIV-1 strain AC10.0.29 envelope (gp120) (HIV-1)
[20] = biological target: HIV-1 Env of strain ZM249M.PL1 (HIV-1)
[21] = biological target: HIV-1 strain X1254_c3 envelope (gp120) (HIV-1)
[22] = biological target: HIV-1 strain Du156.12 envelope (gp120) (HIV-1)
[23] = biological target: HIV-1 strain Du172.17 envelope (gp120) (HIV-1)
[24] = biological target: HIV-1 Env of strain 89-F1_2_25 (HIV-1)
[25] = biological target: HIV-1 Env of strain T255-34 (HIV-1)
[26] = biological target: HIV-1 Env of strain CNE20 (HIV-1)
[27] = biological target: HIV-1 strain Ce0393_C3 envelope (gp120) (HIV-1)
[28] = biological target: HIV-1 strain Q23.17 envelope (gp120) (HIV-1)
[29] = biological target: HIV-1 strain SC422661.8 envelope (gp120) (HIV-1)
[30] = biological target: HIV-1 strain 6480.v4.c25 envelope (gp120) (HIV-1)
[31] = biological target: HIV-1 strain RHPA4259.7 envelope (gp120) (HIV-1)
[32] = biological target: HIV-1 strain Q769.d22 envelope (gp120) (HIV-1)
[33] = biological target: HIV-1 strain REJO4541.67 envelope (gp120) (HIV-1)
[34] = biological target: HIV-1 Env of strain 1006_11_C3_1601 (HIV-1)
[35] = biological target: HIV-1 Env of strain 1056_10_TA11_1826 (HIV-1)
[36] = biological target: HIV-1 Env of strain CNE17 (HIV-1)
[37] = biological target: HIV-1 strain CNE30 envelope (gp120) (HIV-1)
[38] = biological target: HIV-1 strain 1056_10_TA11_1826 envelope (gp120) (HIV-1)
[39] = biological target: HIV-1 Env of strain 62357_14_D3_4589 (HIV-1)
[40] = biological target: HIV-1 strain R1166.c01 envelope (gp120) (HIV-1)
[41] = biological target: HIV-1 Env of strain T278-50 (HIV-1)
[42] = biological target: HIV-1 strain 0815.v3.c3 envelope (gp120) (HIV-1)
[43] = biological target: HIV-1 strain 3103.v3.c10 envelope (gp120) (HIV-1)
[44] = biological target: HIV-1 Env of strain 3718.v3.c11 (HIV-1)
[45] = biological target: HIV-1 Env of strain ZM233M.PB6 (HIV-1)
[46] = biological target: HIV-1 Env of strain Q461.e2 (HIV-1)
[47] = biological target: HIV-1 Env of strain 211-9 (HIV-1)
[48] = biological target: HIV-1 strain 231966.c02 envelope (gp120) (HIV-1)
[49] = biological target: HIV-1 Env of strain AC10.0.29 (HIV-1)
[50] = biological target: HIV-1 Env of strain RHPA4259.7 (HIV-1)

B1: NIH45-46^G54W IgG (antibody, name in Kabat numbering, V domains shown)
VH: QVRLSQSGGQMKKPGESMRLSCRASGYEFLNCPINWIRLAPGRRPEWMGWLKPRWGAVNYARKFQGRVTMTRDVYSDTAFLELRSLTSDDTAVYFCTRGKYCTARDYYNWDFEHWGRGAPVTVSS
VL: EIVLTQSPATLSLSPGETAIISCRTSQSGSLAWYQQRPGQAPRLVIYSGSTRAAGIPDRFSGSRWGADYNLSISNLESGDFGVYYCQQYEFFGQGTKVQVDI
neutralization IC80 [1]: 0.05 µg/mL | neutralization IC80 [2]: 0.15 µg/mL | neutralization IC80 [3]: 0.014 µg/mL | neutralization IC50 [4]: < 0.001 µg/mL | neutralization IC50 [5]: 0.01 µg/mL | neutralization IC80 [6]: 0.16 µg/mL | neutralization IC50 [7]: 0.16 µg/mL | neutralization IC50 [8]: > 50 µg/mL | neutralization IC50 [9]: 0.04 µg/mL | neutralization IC80 [10]: > 50 µg/mL | neutralization IC80 [11]: 0.07 µg/mL | neutralization IC50 [12]: 0.003 µg/mL | neutralization IC80 [13]: 0.039 µg/mL | neutralization IC50 [14]: 0.13 µg/mL | neutralization IC50 [15]: < 0.001 µg/mL | neutralization IC80 [16]: 0.11 µg/mL | neutralization IC80 [17]: 0.16 µg/mL | neutralization IC50 [18]: 0.02 µg/mL | neutralization IC80 [19]: 0.63 µg/mL | neutralization IC50 [20]: 0.002 µg/mL | neutralization IC80 [21]: 0.018 µg/mL | neutralization IC80 [22]: 0.005 µg/mL | neutralization IC80 [23]: 42.9 µg/mL | neutralization IC50 [24]: > 50 µg/mL | improvement of neutralization potency over NIH45-46 [25]: > 700 fold | neutralization IC50 [25]: < 0.001 µg/mL | neutralization IC50 [26]: 0.04 µg/mL | neutralization IC80 [27]: 0.089 µg/mL | neutralization IC80 [28]: 0.03 µg/mL | neutralization IC80 [29]: 0.07 µg/mL | neutralization IC80 [30]: 0.021 µg/mL | neutralization IC80 [31]: 0.007 µg/mL | neutralization IC80 [32]: 0.009 µg/mL | neutralization IC80 [33]: 0.013 µg/mL | neutralization IC50 [34]: < 0.001 µg/mL | neutralization IC50 [35]: 0.024 µg/mL | neutralization IC50 [36]: 0.036 µg/mL | neutralization IC80 [37]: 0.196 µg/mL | neutralization IC80 [38]: 0.16 µg/mL | neutralization IC50 [39]: 0.02 µg/mL | neutralization IC80 [40]: 0.51 µg/mL | neutralization IC50 [41]: > 50 µg/mL | neutralization IC80 [42]: 0.003 µg/mL | neutralization IC80 [43]: 0.56 µg/mL | improvement of neutralization potency over NIH45-46 [44]: 2000 fold | neutralization IC50 [44]: 0.01 µg/mL | neutralization IC50 [45]: 0.02 µg/mL | neutralization IC50 [46]: 0.009 µg/mL | neutralization IC50 [47]: 16.4 µg/mL | neutralization IC80 [48]: 0.11 µg/mL | neutralization IC50 [49]: 0.13 µg/mL | neutralization IC50 [50]: < 0.001 µg/mL

B2: NIH45-46^G54F IgG (antibody, name in Kabat numbering, V domains shown)
VH: QVRLSQSGGQMKKPGESMRLSCRASGYEFLNCPINWIRLAPGRRPEWMGWLKPRFGAVNYARKFQGRVTMTRDVYSDTAFLELRSLTSDDTAVYFCTRGKYCTARDYYNWDFEHWGRGAPVTVSS
VL: EIVLTQSPATLSLSPGETAIISCRTSQSGSLAWYQQRPGQAPRLVIYSGSTRAAGIPDRFSGSRWGADYNLSISNLESGDFGVYYCQQYEFFGQGTKVQVDI
neutralization IC80 [1]: 0.08 µg/mL | neutralization IC80 [2]: 0.3 µg/mL | neutralization IC80 [3]: 0.036 µg/mL | neutralization IC50 [4]: < 0.001 µg/mL | neutralization IC50 [5]: 0.02 µg/mL | neutralization IC80 [6]: 0.25 µg/mL | neutralization IC50 [7]: 0.24 µg/mL | neutralization IC50 [8]: > 50 µg/mL | neutralization IC50 [9]: 0.11 µg/mL | neutralization IC80 [10]: > 50 µg/mL | neutralization IC80 [11]: 0.11 µg/mL | neutralization IC50 [12]: 0.008 µg/mL | neutralization IC80 [13]: 0.056 µg/mL | neutralization IC50 [14]: 0.17 µg/mL | neutralization IC50 [15]: 0.009 µg/mL | neutralization IC80 [16]: 0.13 µg/mL | neutralization IC80 [17]: 0.23 µg/mL | neutralization IC50 [18]: 0.04 µg/mL | neutralization IC80 [19]: 1.12 µg/mL | neutralization IC50 [20]: 0.004 µg/mL | neutralization IC80 [21]: 0.043 µg/mL | neutralization IC80 [22]: 0.019 µg/mL | neutralization IC80 [23]: > 50 µg/mL | neutralization IC50 [24]: > 50 µg/mL | neutralization IC50 [25]: 0.03 µg/mL | neutralization IC50 [26]: 0.53 µg/mL | neutralization IC80 [27]: 0.173 µg/mL | neutralization IC80 [28]: 0.07 µg/mL | neutralization IC80 [29]: 0.1 µg/mL | neutralization IC80 [30]: 0.046 µg/mL | neutralization IC80 [31]: 0.02 µg/mL | neutralization IC80 [32]: 0.023 µg/mL | neutralization IC80 [33]: 0.028 µg/mL | neutralization IC50 [34]: 0.003 µg/mL | neutralization IC50 [35]: 0.064 µg/mL | neutralization IC50 [36]: 0.075 µg/mL | neutralization IC80 [37]: 0.348 µg/mL | neutralization IC80 [38]: 0.283 µg/mL | neutralization IC50 [39]: 0.04 µg/mL | neutralization IC80 [40]: 1.32 µg/mL | neutralization IC50 [41]: > 50 µg/mL | neutralization IC80 [42]: 0.014 µg/mL | neutralization IC80 [43]: 1.28 µg/mL | neutralization IC50 [44]: 0.32 µg/mL | neutralization IC50 [45]: 0.22 µg/mL | neutralization IC50 [46]: 0.03 µg/mL | neutralization IC50 [47]: > 50 µg/mL | neutralization IC80 [48]: 0.24 µg/mL | neutralization IC50 [49]: 0.24 µg/mL | neutralization IC50 [50]: 0.005 µg/mL

Reference: patent US20130209454A1
